Test results from PMC6684607.

Legend:
[1] = molecular target: Recombinantly expressed TNF domain of Spodoptera frugiperda Eiger (SfEiger) (Spodoptera frugiperda); test: SEC; Superdex 200 Increase 10/300 GL; elution volume compared with a protein standard
[2] = molecular target: TNF domain of Spodoptera frugiperda Eiger (SfEiger), endogenous soluble form released from Sf9 cells (Spodoptera frugiperda (endogenous in Sf9)); test: crystal structure; X-ray, 1.7 A, space group R 3:H, one protomer in the asymmetric unit, trimer generated by the crystallographic threefold axis; crystal grown at 298 K in MORPHEUS condition 1-26

stoichiometry N [1]	stoichiometry N [2]	Substance
3		Recombinantly expressed TNF domain of Spodoptera frugiperda Eiger (SfEiger) (domain or fragment)
	3	TNF domain of Spodoptera frugiperda Eiger (SfEiger), endogenous soluble form released from Sf9 cells (domain or fragment)
